Assays:
[1] = type: physicochemical
Excerpt: The IRAK-M[1–119] gene was encoded into the pMAL-c2X vector with N-terminal fusion partner MBP, separated by a Factor XA cleavage site. The R56D and Y61D mutations were achieved using this vector, a single primer (forward primer, with mutations underlined: 5’ […] 3’) and the BIO RAD-iProof High-Fidelity DNA Polymerase to generate expression plasmid pMAL-c2X encoding the MBP- IRAK-M[1-119:R56D,Y61D] fusion protein, with a Factor XA cut site between MBP and IRAK-M[1-119:R56D,Y61D]. To produce uniformly ^15N-labeled MBP-IRAK-M[1-119:R56D,Y61D] in E. coli, transformed cells were grown in M9 minimal media with ^15NH4Cl as the sole nitrogen source, and were induced at OD600 by adding 0.4 mM final concentration of IPTG at 25 °C for 20~22 h. Cells were harvested by centrifugation at 3500 g, the cell pellet was dissolved in IRAK-M wash buffer (20 mM Tris, 200 mM NaCl, 1 mM EDTA, and 0.2 mM TCEP, pH 7.4), and sonicated on ice. Cell debris was removed by centrifugation, the supernatant was incubated with 5 mL of Amylose Resin (BioLabs) pre-equilibrated with IRAK-M wash buffer. The column was washed with 4 bed volumes of IRAK-M wash buffer, and the fusion protein was eluted with 2 bed volumes of elution buffer (10 mM of Maltose added to IRAK-M wash buffer). […] IRAK-M[1-119:R56D,Y61D] concentration was measured by UV absorption at 280 nm (extinction coefficient = 25105 cm^-1 M^-1). […]

WT and PIN1 KO mice = assay: OVA-induced allergic asthma in mice; type: in vivo, mouse; settings: OVA-challenged PIN1 KO vs WT mice
Method: Fig. 1 PIN1 is required for IL-33 to induces TH2 polarization and allergic inflammation. a 5 and15 min after IL-33 treatment of DC2.4 cells, cells were extracted and PIN1 activity was measured as previously described. Inset: PIN1 was immune precipitated and immune blotted for PIN1 or Ser71 phosphorylation as indicated. b WT and PIN1 KO MEF’s were treated with different concentrations of IL-33 for 24 h and the medium was measured for IL-6 secretion. c WT and PIN1 KO mice were treated with 200 ng/mice/day for 4 consecutive days and the BALF was examined for IL-4, 5, 6 and 13 by ELISA. d H&E staining representative of lungs from WT and PIN1 KO mice treated with IL-33 (n = 4). Scale bar = 50 µm. e Total cell number in the BALF of WT and PIN1 KO mice was measured using HEMAVET multispecies hematology analyzer. f Eosinophil cell number in the BALF of WT and PIN1 KO mice was measured using HEMAVET multispecies hematology analyzer. g Representative H&E staining of lung sections from WT and PIN1 KO mice after OVA-induced allergic asthma (n = 4). Scale bar = 50 µm. h IL-4, -5, -13 and IL-33 levels in the BALF of WT and PIN1 KO mice after OVA-induced allergic asthma. The groups were compared using Mann-Whitney U test (i) Total cell number in the BALF of WT and PIN1 KO mice before and after OVA-induced allergic asthma. The data were analyzed by a Student’s two-tailed t test unless stated otherwise, and the values are reported as mean ± standard errors of the means (SEM). *- statistical significance (P < 0.05), **- significance (P < 0.01)

PIN1-IRAK-M interaction = assay: Co-immunoprecipitation of PIN1 and IRAK-M; type: binding; settings: stably expressing DC2.4 cells, with/without IL-33
Method: (§1) Fig. 2 IL-33 induces IRAK-M phosphorylation and binding to PIN1. a GST PIN1 pulldown assay with DC2.4 cell extracts either non-treated or treated with IL-33 (100 ng/ml) or LPS (100ng/ml) for 1 h. […] The cells were washed with fresh medium and treated with 100 ng/ml IL-33 for the indicated times prior to IRAK-M immunoprecipitation. d DC2.4 cells stably expressing IRAK-M were treated with IL-33 and at the indicated time points were subjected to CO-IP using anti-PIN1 antibody and blotted for IRAK-M. e HEK293 cells were transfected with different IRAK-M constructs expressing the N’ terminal domain (aa1-220), the middle portion of the protein (aa220-440) or the C’ terminal domain (aa 440-630), and then treated with IL-33, followed by CO-IP for PIN1. f DC2.4 cells stably expressing IRAK-M were treated with IL-33 and subjected to GST or GST-PIN1 pull-down.
Cells from one 10-cm dish were homogenized in lysis buffer containing 150 mM NaCl, 1% NP-40, 0.5% deoxycholate, 0.1% SDS, 50 mM Tris-HCl (pH 7.7), 1 mM phenylmethylsulfonyl fluoride (PMSF), 1 mM dithiothreitol, and protease inhibitors. Clarified supernatants were incubated with pre incubated immobilized beads rProtein A agarose beads (RepliGen) premixed with PIN1, GFP or IRAK-M antibody or, as a control, IgG overnight at 4 °C. The beads were washed extensively with lysis buffer before elution in SDS sample buffer.

IRAK-M [2] = assay: IRAK-M protein stability, cycloheximide chase; type: cell-based; settings: mutant IRAK-M, WT MEFs; reproduced in DC2.4 cells
Method: Fig. 4 PIN1 increases IRAK-M protein stabilization. a After IRAK-M and GFP were coexpressed in WT and PIN1 KO MEFs for 24 h, cells were split equally into 5 dishes. 24 h later cells were treated with cyclohexamide and harvested to monitor IRAK-M, GFP and PIN1 levels at the time points indicated. b Quantification of 3 independent experiments as in a. c WT MEFs stably expressing the TET on inducible short hairpin for PIN1 (shPin1) or pLKO as a control, were expressed with IRAK-M, followed by induction with Doxycycline for 18 h prior to the cyclohexamide chase. d Quantification of 3 independent experiments as in c. e BMDCs from WT or PIN1 KO mice were treated with IL-33 and the levels of IRAK-M were monitored at different time points after induction. f Quantification of 3 independent experiments as in e. g PIN1 KO MEFs were expressed with IRAK-M alone or in combination with PIN1 or its mutants W34A or K63A for 24 h, followed by the cyclohexamide chase to assay IRAK-M stability. h Quantification of 3 independent experiments as in g. i IRAK-M or its different mutants; S110A, S110E and P111A were expressed in WT MEFs, followed by the cyclohexamide chase to assay IRAK-M stability. j Quantification of 3 independent experiments as in i. k IRAK-M or its different mutants were stably expressed in DC2.4 cells, followed by the cyclohexamide chase to monitor IRAK-M stability. l Quantification of 3 independent experiments as in k. The data were analyzed by a Student’s two-tailed t test and the values are reported as mean ± standard errors of the means (SEM). *- statistical significance (P < 0.05), **- significance (P < 0.01)

IRAK-M [3] = assay: IRAK-M nuclear localization in DC2.4 cells; type: cell-based, C57BL/6; settings: stably expressed in DC2.4 cells
Method: Suppl em enta ry Figur e 3. a DAPI IR AK-M Pin1 Mergeb […]
Supplementary Figure 3. Pin1 targets IRAK-M and promotes its nuclear translocation upon IL-33 induction.
(a) Immunostaining for IRAK-M and Pin1 in DC2.4 cells before and after IL-33 treatment. ( b) DC2.4 cells were treated with IL-33 and subjected to nuclear/cytoplasmic fractionation, followed by Western blot for IRAK-M with actin as a cytoplasmic marker and Fox1 as a nuclear marker. C- cytoplasmic; N- Nuclear.
(c) Cytospin slides from BALF of the treated WT mice as indicated, were co stained for DC205 and IRAK-M.
(d) IRAK-M or its mutants S110E or P111A were stably expressed in DC2.4 cells and their localization and Pin1 localization were monitored by immunostaining. (e) GFP-IRAK-M were expressed in Pin1 KO MEFs either with or without RFP-Pin1 as indicated, and their localization was monitored. Scale = 50 µm.
(also on this page, place not known: Control +IL-33: b DAPIe MergeGFP RFP GFP- GFP-IRAK-M/ RFP MergeIRAK-M Pin1DAPI ControlIL-33 Mergec Supplementary Figure IRAK-M IRAK-M (b) IL-33 IRAK-M IRAK-M Pin1) […]

IRAK-M [4] = assay: IRAK-M phosphorylation in DC2.4 cells; type: cell-based, C57BL/6; settings: DC2.4 stably expressing mutant, IL-33
Method: as §1

B1: IRAK-M[1–119]: recombinant IRAK-M residues 1–119 including the DD (protein, UniProt Q8K4B2 1-119, looked up, fragment)
chain: MAGRCGARGALSPQLLLFDLPPALLGELCGILDSCDGPLGWRGLAERLSNSWLDVRHIEKYVNQGKSGTRELLWSWAQKNKTIGDLLEVLQDMGHQRAIHLIINYGVSWTPSVQTHHEL
- solubility of cleaved protein [1]: precipitated under all conditions explored

B2: OVA: ovalbumin (OVA), inducer of model of allergic asthma (protein, UniProt P01012 2-386, looked up)
Ovalbumin: GSIGAASMEFCFDVFKELKVHHANENIFYCPIAIMSALAMVYLGAKDSTRTQINKVVRFDKLPGFGDSIEAQCGTSVNVHSSLRDILNQITKPNDVYSFSLASRLYAEERYPILPEYLQCVKELYRGGLEPINFQTAADQARELINSWVESQTNGIIRNVLQPSSVDSQTAMVLVNAIVFKGLWEKAFKDEDTQAMPFRVTEQESKPVQMMYQIGLFRVASMASEKMKILELPFASGTMSMLVLLPDEVSGLEQLESIINFEKLTEWTSSNVMEERKIKVYLPRMKMEEKYNLTSVLMAMGITDVFSSSANLSGISSAESLKISQAVHAAHAEINEAGREVVGSAEAGVDAASVSEEFRADHPFLFCIKHIATNAVLFFGRCVSP
- BALF total cells count (WT and PIN1 KO mice): reduced BALF total cells count
- TH2 cytokine levels in BALF (WT and PIN1 KO mice): reduced TH2 cytokine levels
- lung inflammation (WT and PIN1 KO mice): reduced lung inflammation

B3: S110E: IRAK-M full protein phosphomimetic mutant S110E (protein)
chain: MAGNCGARGALSAHTLLFDLPPALLGELCAVLDSCDGALGWRGLAERLSSSWLDVRHIEKYVDQGKSGTRELLWSWAQKNKTIGDLLQVLQEMGHRRAIHLITNYGAVLEPSEKSYQEGGFPNILFKETANVTVDNVLIPEHNEKGILLKSSISFQNIIEGTRNFHKDFLIGEGEIFEVYRVEIQNLTYAVKLFKQEKKMQCKKHWKRFLSELEVLLLFHHPNILELAAYFTETEKFCLIYPYMRNGTLFDRLQCVGDTAPLPWHIRIGILIGISKAIHYLHNVQPCSVICGSISSANILLDDQFQPKLTDFAMAHFRSHLEHQSCTINMTSSSSKHLWYMPEEYIRQGKLSIKTDVYSFGIVIMEVLTGCRVVLDDPKHIQLRDLLRELMEKRGLDSCLSFLDKKVPPCPRNFSAKLFCLAGRCAATRAKLRPSMDEVLNTLESTQASLYFAEDPPTSLKSFRCPSPLFLENVPSIPVEDDESQNNNLLPSDEGLRIDRMTQKTPFECSQSEVMFLSLDKKPESKRNEEACNMPSSSCEESWFPKYIVPSQDLRPYKVNIDPSSEAPGHSCRSRPVESSCSSKFSWDEYEQYKKE
- PIN1 interaction (CO-IP), IRAK-M mutants (PIN1-IRAK-M interaction): much weaker PIN1 interaction was evident before IL-33 stimulation
- resistance of IRAK-M to degradation (IRAK-M [2]): completely resistant to degradation
- nuclear localization of mutant IRAK-M (IRAK-M [3]): higher nuclear localization

B4: P111A: IRAK-M mutant that eliminates the PIN1 consensus motif (protein)
chain: MAGNCGARGALSAHTLLFDLPPALLGELCAVLDSCDGALGWRGLAERLSSSWLDVRHIEKYVDQGKSGTRELLWSWAQKNKTIGDLLQVLQEMGHRRAIHLITNYGAVLSASEKSYQEGGFPNILFKETANVTVDNVLIPEHNEKGILLKSSISFQNIIEGTRNFHKDFLIGEGEIFEVYRVEIQNLTYAVKLFKQEKKMQCKKHWKRFLSELEVLLLFHHPNILELAAYFTETEKFCLIYPYMRNGTLFDRLQCVGDTAPLPWHIRIGILIGISKAIHYLHNVQPCSVICGSISSANILLDDQFQPKLTDFAMAHFRSHLEHQSCTINMTSSSSKHLWYMPEEYIRQGKLSIKTDVYSFGIVIMEVLTGCRVVLDDPKHIQLRDLLRELMEKRGLDSCLSFLDKKVPPCPRNFSAKLFCLAGRCAATRAKLRPSMDEVLNTLESTQASLYFAEDPPTSLKSFRCPSPLFLENVPSIPVEDDESQNNNLLPSDEGLRIDRMTQKTPFECSQSEVMFLSLDKKPESKRNEEACNMPSSSCEESWFPKYIVPSQDLRPYKVNIDPSSEAPGHSCRSRPVESSCSSKFSWDEYEQYKKE
- PIN1 interaction (CO-IP), IRAK-M mutants (PIN1-IRAK-M interaction): totally abolished
- IRAK-M phosphorylation (mutant) (IRAK-M [4]): totally abolished
- decrease of IRAK-M protein stability (IRAK-M [2]): ~ 50%

From paper PMC5913134, “The IL-33-PIN1-IRAK-M axis is critical for type 2 immunity in IL-33-induced allergic airway inflammation” (Nature Communications, 2018)
